Assay results reported in publication PMC5585275.

Molecular target: pre-translocation (PRE) complex of the E. coli 70S ribosome (E. coli) (UniProt P0A7K2)
Test: stopped-flow fluorescence and FRET kinetics, global fit by numerical integration; PRE complexes (0.05 uM, six fluorescence reporters) mixed with saturating EF-G (4-5 uM), 1 mM GTP, 200 uM fusidic acid; buffer A (50 mM Tris-HCl pH 7.5, 70 mM NH4Cl, 30 mM KCl, 7 mM MgCl2), 37 °C; 5-step model, k-1/k1 constrained to 65/55 uM; KinTek Explorer

Substance: elongation factor G (from UniProt P0A6M8 1-704) (enzyme)
- kon: 4.2e+07 M⁻¹ s⁻¹
